Data as given in patent publication US20150110766A1 (UNIVERSITY ULM, published 2015).

Legend:
iC3b = molecular target: T1, iC3b (UniProt P01024 23-667; P01024 749-1303; P01024 1321-1663); assay: SPR (Biacore 2000), analyte over iC3b surface on CM5 chip
T1 construct: Made on the chip from deposited C3b with FI and the cofactor FH
Procedure: (§1) C3-fragment binding. Equal amounts of C3b (˜4000 RUs) (from Complement Technology, Tyler, Tex., USA) were immobilized onto 3 flow-cells (fc) of a CM5 chip (Biacore) by initial amine-coupling of a small amount of C3b onto fc 2-4 and further deposition of the vast majority of C3b molecules via its reactive thioester through an on-chip assembly of the AP-convertase (C3bBb) and subsequent exposure to and proteolytic activation of C3 (24). The surface was washed overnight with a buffer flow of 10 ul/min to allow stabilization of the physiologically prepared C3b-surface. […] C3b molecules on fc3 and fc4 were processed with FI in the presence of the cofactors FH or soluble complement receptor 1 (sCR1) to yield iC3b or C3dg (the latter as described in Morgan et al., 2011, supra), respectively. A dummy surface (fc1) was prepared by two consecutive cycles of surface activation with standard amine coupling reagents and quenching by ethanolamine.
(§2) Due to the physiological deposition of C3b and subsequent trimming with FI, both, the iC3b and the C3dg, surfaces likely carry miniscule amounts of residual C3b molecules, which were not readily accessible by FI. […] Deposition, proteolytic processing and all interactions studies were performed in HBS-P+buffer (i.e. 10 mM HEPES-buffered 150 mM saline (pH7.4), 0.005% (v/v) surfactant p20, 1 mM MgCl₂) at 25° C.

C3b = molecular target: T2, C3b (UniProt P01024 749-1663; P01024 23-667); assay: SPR (Biacore 2000), analyte over C3b deposited on CM5 chip
T2 construct: Immobilised on a CM5 chip; A small amount was amine-coupled and the majority deposited via the reactive thioester by on-chip AP convertase; also called complement fragment C3b; deposited C3b
Procedure: as §1, §2

C3dg = molecular target: T3, C3dg (UniProt P01024 955-1303); assay: SPR (Biacore 2000), analyte over C3dg surface on CM5 chip
T3 construct: Made on the chip from deposited C3b with FI and the cofactor sCR1
Procedure: as §1, §2

T1 sequence (P01024 23-667, chain 1 of 3): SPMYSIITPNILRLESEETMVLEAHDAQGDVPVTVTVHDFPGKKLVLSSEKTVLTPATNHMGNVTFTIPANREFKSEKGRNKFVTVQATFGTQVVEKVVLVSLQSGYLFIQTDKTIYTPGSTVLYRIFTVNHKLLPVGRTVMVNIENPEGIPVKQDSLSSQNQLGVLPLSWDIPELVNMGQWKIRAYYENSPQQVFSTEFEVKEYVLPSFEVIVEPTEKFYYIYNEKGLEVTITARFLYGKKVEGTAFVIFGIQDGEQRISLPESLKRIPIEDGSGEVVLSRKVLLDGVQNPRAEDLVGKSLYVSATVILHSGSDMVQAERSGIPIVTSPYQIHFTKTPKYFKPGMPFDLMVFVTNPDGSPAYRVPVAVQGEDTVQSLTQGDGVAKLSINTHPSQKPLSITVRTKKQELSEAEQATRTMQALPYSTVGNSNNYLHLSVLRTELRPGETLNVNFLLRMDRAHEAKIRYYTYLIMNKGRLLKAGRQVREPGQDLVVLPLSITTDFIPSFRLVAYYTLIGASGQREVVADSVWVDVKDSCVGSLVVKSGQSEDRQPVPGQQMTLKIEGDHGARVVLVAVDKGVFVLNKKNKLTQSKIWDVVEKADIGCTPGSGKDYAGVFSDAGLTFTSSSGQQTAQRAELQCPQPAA
T1 sequence (P01024 749-1303, chain 2 of 3): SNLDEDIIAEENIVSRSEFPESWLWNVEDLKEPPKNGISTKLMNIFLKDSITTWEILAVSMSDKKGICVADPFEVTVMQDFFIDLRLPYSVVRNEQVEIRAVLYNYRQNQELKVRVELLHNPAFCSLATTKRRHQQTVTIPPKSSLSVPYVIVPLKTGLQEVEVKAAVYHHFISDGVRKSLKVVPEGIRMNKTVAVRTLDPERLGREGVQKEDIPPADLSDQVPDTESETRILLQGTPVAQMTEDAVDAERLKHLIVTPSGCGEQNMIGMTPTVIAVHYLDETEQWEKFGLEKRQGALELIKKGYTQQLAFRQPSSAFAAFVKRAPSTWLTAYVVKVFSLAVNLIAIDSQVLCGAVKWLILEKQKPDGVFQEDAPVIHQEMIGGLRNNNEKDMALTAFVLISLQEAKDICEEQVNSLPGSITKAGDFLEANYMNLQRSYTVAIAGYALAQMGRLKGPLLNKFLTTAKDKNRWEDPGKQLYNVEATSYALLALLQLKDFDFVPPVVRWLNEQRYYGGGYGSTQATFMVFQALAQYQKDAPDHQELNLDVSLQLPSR
T1 sequence (P01024 1321-1663, chain 3 of 3): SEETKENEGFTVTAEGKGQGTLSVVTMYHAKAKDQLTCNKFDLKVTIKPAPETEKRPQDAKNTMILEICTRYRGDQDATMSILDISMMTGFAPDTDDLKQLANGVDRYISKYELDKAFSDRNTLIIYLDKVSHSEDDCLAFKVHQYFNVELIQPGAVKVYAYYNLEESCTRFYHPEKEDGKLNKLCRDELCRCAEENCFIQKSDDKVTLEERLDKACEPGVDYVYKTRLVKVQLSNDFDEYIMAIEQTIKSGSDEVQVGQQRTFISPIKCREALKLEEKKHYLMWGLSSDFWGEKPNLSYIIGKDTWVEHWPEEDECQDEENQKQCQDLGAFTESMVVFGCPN
T2 sequence (P01024 749-1663 limits assumed, chain 1 of 2): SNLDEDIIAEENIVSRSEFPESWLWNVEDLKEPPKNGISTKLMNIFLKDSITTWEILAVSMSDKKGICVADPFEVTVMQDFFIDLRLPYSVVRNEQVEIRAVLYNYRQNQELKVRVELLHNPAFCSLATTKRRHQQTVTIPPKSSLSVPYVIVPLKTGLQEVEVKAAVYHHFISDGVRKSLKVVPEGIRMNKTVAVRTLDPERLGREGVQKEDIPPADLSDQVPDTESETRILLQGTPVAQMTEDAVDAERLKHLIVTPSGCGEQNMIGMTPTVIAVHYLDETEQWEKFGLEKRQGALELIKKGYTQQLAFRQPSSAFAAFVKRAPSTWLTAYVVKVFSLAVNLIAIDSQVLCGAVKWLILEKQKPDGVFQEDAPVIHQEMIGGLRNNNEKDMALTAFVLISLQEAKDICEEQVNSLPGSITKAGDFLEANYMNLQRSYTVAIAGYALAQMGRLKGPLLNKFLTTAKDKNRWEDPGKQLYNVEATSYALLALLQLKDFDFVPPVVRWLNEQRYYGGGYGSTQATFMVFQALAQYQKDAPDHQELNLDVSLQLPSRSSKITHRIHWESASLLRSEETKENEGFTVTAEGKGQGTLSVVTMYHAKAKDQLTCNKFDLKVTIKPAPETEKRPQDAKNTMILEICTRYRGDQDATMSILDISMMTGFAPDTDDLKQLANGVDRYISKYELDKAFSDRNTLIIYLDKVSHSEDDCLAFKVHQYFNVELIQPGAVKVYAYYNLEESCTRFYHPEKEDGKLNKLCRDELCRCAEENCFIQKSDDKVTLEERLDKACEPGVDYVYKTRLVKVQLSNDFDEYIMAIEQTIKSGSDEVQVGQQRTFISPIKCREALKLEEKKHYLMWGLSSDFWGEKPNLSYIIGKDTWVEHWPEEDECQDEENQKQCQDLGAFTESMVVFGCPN
T2 sequence (P01024 23-667 limits assumed, chain 2 of 2): as the sequence (P01024 23-667, chain 1 of 3) above
T3 sequence (P01024 955-1303 limits assumed): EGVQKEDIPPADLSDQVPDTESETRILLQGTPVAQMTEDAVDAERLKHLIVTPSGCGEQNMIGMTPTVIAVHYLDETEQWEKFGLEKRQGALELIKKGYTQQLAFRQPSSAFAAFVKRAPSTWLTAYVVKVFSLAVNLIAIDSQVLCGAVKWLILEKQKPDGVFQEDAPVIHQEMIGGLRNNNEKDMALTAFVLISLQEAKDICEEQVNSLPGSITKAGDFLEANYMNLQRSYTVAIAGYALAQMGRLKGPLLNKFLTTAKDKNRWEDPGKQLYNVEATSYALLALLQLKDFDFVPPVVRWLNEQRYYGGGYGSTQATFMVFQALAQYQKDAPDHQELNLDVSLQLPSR

binding result (iC3b): no binding
binding result (C3b): no binding
binding result (C3dg): no binding
B1: FH15-18 (other, UniProt P08603 868-1104, looked up)
chain: IPCSQPPQIEHGTINSSRSSQESYAHGTKLSYTCEGGFRISEENETTCYMGKWSSPPQCEGLPCKSPPEISHGVVAHMSDSYQYGEEVTYKCFEGFGIDGPAIAKCLGEKWSHPPSCIKTDCLSLPSFENAIPMGEKKDVYKAGEQVTYTCATYYKMDGASNVTCINSRWTGRPTCRDTSCVNPPTVQNAYIVSRQMSKYPSGERVRYQCRSPYEMFGDEEVMCLNGNWTEPPQCKD
notes: domain: CCPs 15-18; Negative control analyte in SPR
